The text below walks through data of the nanobody polyreactivity screen of Harvey et al. (2022).

A short description of the data set: yeast display, Sf9 membrane polyspecificity reagent, FACS + sequencing; frameworks hold sequencing errors. The method in brief: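 In a synthetic yeast display library (Saccharomyces cerevisiae BJ5465), nanobody expression was induced with galactose for 36–48 hours. FACS gates were set low and high (top ~1%) using anti-HA fluorescence for expression and streptavidin fluorescence for binding of the Sf9 membrane reagent. Each polyreactivity label is drawn from the gate of origin.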
Regarding “QVQVGESGGGLVQAGGSLSLSCAASGSIFPANAMGWYRQAPGKERELVAAITRGGRTYYADSVKGIFTISRDNAKNCVYLQMNSLKPEDTAVYDCAAYVLSKREYYRYDYWGQGTQVTVSS”, the “polyreactivity (PSR sort gate)” value was “high polyreactivity”.
Regarding “QVQLVESGGGLVQAGGSLRLSCAASGRTFRYYAMGWYIQAPGKERELVATITGSGGSTYYADSVKGRFTISRDNAKNTVYLQMNSLKPEDTAVYYCNARKVRYPYRWYDYWGQGTQVTVSS”, the “polyreactivity (PSR sort gate)” value is recorded as “high polyreactivity”.
On to “QVQLVESCGGLVQAGGSLRLSCSASGFIIPYYAMGWYRQAPGKERELVAAISYSGDSTYYADSVKGRFTISRDNAKNTVYLLMISLKPEDTAVYYCAADVEQYYPLLTFDYCGQGTQVTVSS”, for which the “polyreactivity (PSR sort gate)” value was “low polyreactivity”.
For “QVQLVESGGGLVQAGGSLRLSCAASGSIFVGTAMGWYRQAPGKERELVADINSGGSTNYADSVKGRVTISRDNAKNTVYLQMNSLKPEDTAVSYCAKSAVSGTYDYWGQGTQVTVSS” the value was “low polyreactivity”; for “QVQLVESGGGLVQAGGSLRLSCAASGRTALIYAMGWYRQAPGKERELVAAITASGGNTDYADSVKGRFTISRDNAMNTVYLQMNSLKPEDTAVYYCNKSRYDGGSGYDYWGQGTQVTVSS”, “low polyreactivity”; for “QVQLQESVGGLVQAGGSLRLSCPASGSIFKVVDMVLYRQAPAKEREFVATIGVGGNTYYADSVKGRFTISRDNAKNTVYLQMNSLKPEDTAVYFYAVVLGTSYRYTYWGQGTQVTVSS”, “low polyreactivity”.
Turning to “QVQLVESGGGLVQAGGRLRLSCAASGGTFRLYTMASYRQAPGKERELVAGISSSSGSTYYADSVKGRFTISRDNAKNTVYLQMNSLKPEDTAVYYCAAYWPRSRYDYWGQGTQVTVSS”, the “polyreactivity (PSR sort gate)” value is given as “high polyreactivity”.
The same measure for “QVQLVESGGGLVQAGGSLRLSCAASGSTFPVNAMGWYIQAPGKERELVARIRGSGGSTYYADSVKGRFTISRDNAKNTVYLQMNSLKPEDTAVYYCNADPVRSGLDYWGQGTQVTVSS”: “high polyreactivity”.
As for “QVQLVESRGGLVQAGGSLRLSCAASGRTFGIYTMGWYRQAPGKERKLVAAISKRGSSTYYADSVKGRFTISRDNANNTVYLQMNSLKPEDTAVYYCAATRRYRYNWGQGSQVTVSS”, the “polyreactivity (PSR sort gate)” value was “high polyreactivity”.
With “QVQLVESCGCLVQAGGSLRLSCAASGSTFRKYAMGWYRQAPGKEREFVAAITWSTGTTYYADSVKGRFTISRDNAKNTVYLQMNSLKPEDTAVYYCAADSQPPHELYESIEHESWGQGTQVTVSS”, the “polyreactivity (PSR sort gate)” value is “low polyreactivity”.
Consider “QVQLVESGGGLVQAGGSLRLSCAASGSTFPFYAMGWYRQAPGTERELVAAITSGGSTYADSVKGRFTISRDNAKNTVYLQMNSLKPEDTAVYYCAASWPRWWRFGYWGQGTQVTVSS”, for which the “polyreactivity (PSR sort gate)” value is “low polyreactivity”.
On to “QVQLVESGGGLVQAGGSLRLSCAASGRIFDRNAMGWYRQAPGKERELVAAIDDSGGDTSYADSVKGRFTISRDNAKNTVYLQMNSLKPEDTAVYYCNAGYADFVTYPRYYYWGQGTQVTVSS”, for which the “polyreactivity (PSR sort gate)” value is “low polyreactivity”.
In the case of “QVQLVESGGGLVQAGGSLRLSCAASGRTFSRNAMGRYRQAPGKVRELVATISSSGVRTYYADSVKGRFTMSRDNAKNTVYLQMNSLKPEETAVYYWAAAWRYYSAASGYDYWGQGTLVTVSS”, the “polyreactivity (PSR sort gate)” value is “low polyreactivity”.
The same measure for “QVQLVESGGGLVQAGGSLRLSCAASGRTFVNYTMGWYRQAPGKERELVAAIRYRDGSTYYADSVKGRFTISRDNAKNTVYLQMNSLKPEDTAVYYCDTRITQVGDYIYDYWGQGTQGTVSS”: “low polyreactivity”; for “QVQLVESGGGLVQAGGSLRLSCAASGITLYYYVMGWYRQAPGKERELVAAISWNSGRTYYADSVKGRFTISRDNAKNTVYLQMNSLKPEDTAVYYCAARPPVRLTYRYSYDYWGQGTQVTVSS”: “high polyreactivity”.
The same measure for “QVQLVESGGGLVQAGGSHRLSCAASGFIFYVYAMGWYRQAPGKERELVATINGRRSRTYYADSVKGRFTISRDNAKNTVYLQMNSLKPEDTAVYYCAAVAWVLRYGRGDYWGQGTQVTVSL”: “high polyreactivity”.
As for “QVQLVESGGGLVQAGGSLRLSCAASGLTFAYYAMGWYRQAPGKERELVATISRSGSTYYADSVKGRFTISRDNAKNTVYLQMNSLKPEDTAVDYCATAYHHYVYRQYTFGRGIYDFWGQGTQVTVSS”, the “polyreactivity (PSR sort gate)” value was “high polyreactivity”.
For “QDQLVESGGGLVQAGGSLRLSCAASGFIFFYYAMGRYRQAPGKERELVAAISSSGGSTYYADSVKGRFTISRDNAKNTVYLQMNSLKPEDTAVYYCAAQYNVPRDKYYYWGQGTQVTVSS” the value was “high polyreactivity”; for “QVQLVESGGGLVQAGGSLRLSCAASGRILWSYAMGWYRQAPGKERELVASISGRGGSTYYADSVKGRFTISRDNAKNTVYLQMNSLKPEDTAVYYCAAYRLRFWSMDYWGQGTQVTVSS”, “high polyreactivity”; for “QVQLVDSGGGLDQAGGSLRLSCAASGYTFWLYAMGWYRQAPGKERELVAAISRGGITNYADSVKGRFTISRDNAKNTVYLQMNSLKPEDTAVYYCAAEYRGRGWRYGYDDWGQGTQVTVSS”, “high polyreactivity”.
Consider “QVQLVESGGGLVQAGGSLRLSCAASGSTFGYNAMGWYRQAPGKERELVAAITWSGGSTYYADSVKGRFTISRDNAKNTFYFQMNSLKPEDTAVYYCAAEWGVGKSWLEYLLFYYWGQGTQVTVSS”, for which the “polyreactivity (PSR sort gate)” value is “low polyreactivity”.
“QVQLVESGGGLVQAGGSLRLSCAASGRIFPYYAMGWYRQAPGKERELVAAISQSDGSTYYADSVKGRFTISRDNEKNTVYLQMNSLKPEVTAVYYWAKRQASYTQHRKGRGDYWGQGTQVTVSS”: the “polyreactivity (PSR sort gate)” value is listed as “low polyreactivity”.
For “QVHLVETGGGLVQEGGSLRLSCAASGSIFYYNAMGWYRQATGKETELVAAITSSGGSTYADSVKGRFTISRDNAKNTVYLQMNSLKPEDTAVYYCATVAHGLWSGSGYIYAYDYWGQGTQVTVSS”, the “polyreactivity (PSR sort gate)” value is “low polyreactivity”.
Turning to “QVQLVESGGGLVQAGGSLRLSCAASGSIIDYYAMGWYRQAPGKERELVADITVTGDGTYYADSVKGRFTISRDNAKNTVYLQMNSLKPEDTAVYYCAADFWLVSFQWDFEYDYWGQGTQVTVSS”, the “polyreactivity (PSR sort gate)” value is “low polyreactivity”.
The same measure for “QVQLVESGGGLVQAGGSLRLSCAASGRTFDRYAMGWYRQAPGKERELVAAISSGGSTYYADSVKGRFTISRDNAKNTVYLQMNSLKPEDTAVYYCAAGESGSFFIYYYWGQGTQVTVSS”: “low polyreactivity”; for “QVQLVESGGGLVQAGGSLRLSCAASGSIFTVNAMGWYRQAPGKERELVAAISDSGGSTYYADSVKGRFTISRDNAKNTVYLQMISLKPEDTAVYYCAVEIYYFVYGISYDYWGQGTQVTVSS”: “high polyreactivity”; for “QVQLVESGGGLVQGGGSLRLSCAASGSIFTYNAIRSYRQAPGKERELVAAINTSGSTNYADSVKGRFTLSRDNAKNTVYLQMNSVKPEVTAVYYCAAGIVVTGYDYWGHGTQVTVSS”: “low polyreactivity”.
Turning to “QVQLVESGGGLVQAGGSLRLSCAASGFIFYRYTMGWYRQAPGKERELVAAISGSGGSTYYADSVKGRFTISRDNAKNTVYLQMNSLKPEDTAVYYCAAAHRYWGQGTQVTVSS”, the “polyreactivity (PSR sort gate)” value is “high polyreactivity”.
Consider “QVQVVESGGGLVQAGGSLRLSCAASGLTFQVYAKGWYRQAPGKERELVARISSSGSSTYADSVKGRFTISRDNAKNTVYLQMNSLKPEDTAVYYCNAGKRQRGEYWGQGTQVTVSS”, for which the “polyreactivity (PSR sort gate)” value is “high polyreactivity”.
For “QVQLVESGGGLVQAGGSLRLSCAASGSTFRVYAMGWYRQAPGKERELVAAISWSAGSTYYADSVKGRFTISRDNAKNTVYLQMNSLKPEDTAVYYCNADPDRYDWYTYLYLADYWGQGTQVTVSS” the value was “low polyreactivity”; for “QVQLVESGGGLVQAGGSLLLSSAASGIIFNQYAMGWYRQAPGKERELVATISSGGARTYYADSVKWRFTISRDNAKNTVYLQMNSRKPEDTAVYFCNRRVPYSFYSRGYYYWGQGTQVTVSS”, “high polyreactivity”.
Turning to “QVQLVESGGGLVQAGGSLRLSCAASGIIFGYYAMGWYRQAPGKERELVAGITYRTGSTYYADSVKGRFTISRDNAKNTVYLQMNFLKPEDTAVYYCAATQYKRKYSSWYYYWGQGTQVTVSS”, the “polyreactivity (PSR sort gate)” value is given as “high polyreactivity”.
With “QGQLVESGGGLVQAGGSLRLSCAASGGIFDSNAMGWYRQARGKERELVAAISDSGGSTYYADSVKGRFTITRDNAKNTVYLQMNSLKTDDTAVYDCAADSDYHFLNYRFGMDYWGQGTQVTVSS”, the “polyreactivity (PSR sort gate)” value is “low polyreactivity”.
Consider “QVQLVESGGGLVQAGGSLRLSCAASGSIFSGYVMGWYRQAPGKERELVAAITWSGGRTYYADSVKGRFTISRDNAKNTVYLQMNSLKPEDTAVYYCAKRKIKSSGYYYWGQGTQVTVSS”, for which the “polyreactivity (PSR sort gate)” value is “high polyreactivity”.
Turning to “QVQLVESGGGLVQAGGSLRLSCAPSGFIFSRYAMGWYRQAPGKERELVATITSSGGSTYYADSVKGRFTISRDNAKNTVYLQMNSLKPEDTAVYYCNAKISIRWHYGYYYWGQGTQVTVSS”, the “polyreactivity (PSR sort gate)” value was “high polyreactivity”.
“QVQLVESAGGLVQAGGSLRLSCAASGFTFRYYAMGWYRQAPGKERELVAAISWSGGRTYYADSVKWRLTISRDNANNTVYLQMNSLKPEDTADYYCAADGYQYFYGDFDYWGQGTQVTVSS”: the “polyreactivity (PSR sort gate)” value was “high polyreactivity”.
In the case of “QVQLVESGGGLVQAGGSLRLTCAASGRTFRNYAMGWYRQAPGKEREMVAAISRSGGITYYADSVKGRFTISRDNAKNTVYLQMNSLKPEDTAVYYCAARHSYQGPGTYPMYYWGQGTQVTVTS”, the “polyreactivity (PSR sort gate)” value is “high polyreactivity”.
Turning to “QVQLVESGGGLVQAGGSLRLSCAASGIPLVSYARGWYRPAPGKVRELVAAISTSGGRTRYADSVKGRFTISRDHAKNTVYIQMNSLKPEDTAVYYCAAELVEPRYNHLPGDGNYWGQGTQVTGSS”, the “polyreactivity (PSR sort gate)” value is “high polyreactivity”.
For the sequence “QVQLVESGGGLVQEGGSLRLICAASGRTVNTNALGLYRQAPGKEREFVAAISRSGGSTRYADSVKGRFTISRDNAKNTVYLQLNSLKPEDTAVYYCAAVRFRPRGNEYWGQGTQVTVSS”, the “polyreactivity (PSR sort gate)” value is reported as “high polyreactivity”.
Turning to “QVQLVESGGGLVQAGGSLSLSCAASGSTFLKYTMGWYRQAPWKERELVAAISKSGGSTYYADSVKGRFTISRDNAKNTVYLQMNSLKPEDTAVYYCAKGRYWVYSYGYGYWGQGTQVTVSS”, the “polyreactivity (PSR sort gate)” value is reported as “high polyreactivity”.
The same measure for “QVQLVESGGGLVQAGGSLRLTCAASVSTFSRYAMGWYRQAPGKERELVAAISWRGGRTYYADSVKGRFTISRDNAKNTVYLQMNSLKPEDTAVYYCNAVSSFTSPRYDYWGQGTQVTVSS”: “high polyreactivity”.
